Data: the DeepSol protein solubility set

assay: soluble on expression in E. coli; label from the status in PepcDB or PDB records

Sequence | soluble on expression in E. coli
MDELTAFNQCLAWLTHTTALPEHLDGLVLCGNSLPATATAAGQLAQDYQLPLLIIAGGVGHATKYLRQNLNLPKSQASEAELMATLVRKTGYQGSIRLDKTSTNTGSNATHARALAPTDWRHVLLVQDPLLARRTTLTFSANWSNANFIRYAPATLQLNRLQPMQFTPNTIVAGWQPAYFTELLLGEFQRLVDTPTGYGPRGQGFIAHVDIPEEVLAAARYLQSQSLHRQRLEHHHHHH | soluble
MDFKHLTQFKDIIELDKRPVKLDERETFNVSWGIDENYQVGAAISIASILENNKQNKFTFHIIADYLDKEYIELLSQLATKYQTVIKLYHIDSEPLKALPQSNIWPVSIYYRLLSFDYFSARLDSLLYLDADIVCKGSLNELIALEFKDEYGAVVIDVDAMQSKSAERLCNEDFNGSYFNSGVMYINLREWLKQRLTEKFFDLLSDESIIKKLKYPDQDILNLMFLHHAKILPRKYNCIYTIKSEFEEKNSEYYTRFINDDTVFIHYTGITKPWHDWANYASADYFRNIYNISPWRNIPYKKAVKKHEYKEKYKHLLYQKKFLDGVFTAIKYNVMKG | not soluble
MDFLNDFDPSDDENNCKHQEKPTYLPFKPNFHEKYWYRNALKENQTATAITEIDLFRVADCYHNGDFECAENILTGLRESTKNNRTHEIMLIDSLLQCSIKKTSELSSPETSISLQFLSYYESILVDFGDQIQFLRTKAFLLSKLPFTSNYQKEFKNTMALLCQLCGSFENWQLFEIGSKYFTKLEMFGLKLKMKKVLKYEIDHSKGFIQEKLKKRLEKITKELNELEGELESNIIESIHSSINSHKDTTTVESTPNSEFRAHESRSKNKLIPVSDQPATIEDFFHRFPFLSF | not soluble
MDFSEASTSGDRVNGFAKPFPPKPREGAPPPAPPLAPGASTSQAPPPLQPPPVIESAEKFYVPGVEEKSKFRILSQQVEISNLNISTRSFNVRTEIVLLPCEKSLYQLDLHIGKCSLLPNEVPGSASKVTLNGVECEYSRRDFWKDLAQEKSISSLEPVLYEKLAENDYELQILIPKEVRKKIKHRKAVRLRVDTVVRDPPRGLQFVDFNEHDCHVFTYHTPHISGAREWTVCLDEPDQLALWELTFELEPHLVPVASGELEEKREVSENGKIRYKFHQTVPTSACNIGWAIGRFKLEPHPESPTIYTFSLPGLEPFVNHTTMYLDKMVEFLEEKLSCRFPYPTLKVVFVDQCTEEIQVYSSLLIVPTAMLYHKKIIDVVQEARQKLIFSIALQFFGCLISPAQWWHWWIPVSIARFLTSLYVETKLGTAEARWQLKRAMDDVCDYEHQWGKIVLSPPEPTKKLPLHVDPRHEYTASPLYVEAMLKKGFLTMRMLQRRIGLEPFMRVLHRVLTVGLDMSEKKTTPAAWRHLLTTTESFFRSVISVTGKEIPSFLSQFVRTGGHAAFAVKFDFNRKRNIVEIEIKQDDTEGNGRTQYTGPLSVVVQEVDGAFTHTIQIDGAVSHAEISCHSKGRKQRKKKVPLLTGEEIEIDLTNMDAESPILWLRIDPDYLLIREITISQPMFHWEYMLRYERDVIAQMEALERIQALPSAHSRSVIVDAVANEKFFYRIRYRAAFVLTFVQNRKSEALTVGTPVLINMFRESFGSKAATNIPRSNNFVVTAQNLQQYFVMQALPQAIARLRRQSGECHEDVQPFLLDLIKFNDNSTNRYSDDFYRAALYNSLASSVFPHDALPCHVELPENLSNDVRVLIKEFTYALNMDTVSPSWGRVVGAAALTGLYQLQKCGYLPLDSQLLWTFSHPNCCVQMRRCAITLIIDRIVNDPHAADTRMLDLSRILELAELEQDPSIRRMIPRLLAQTPPTIFGSENAANTAETAERLWKLCTNSSIDSCIRSGFLDVYYSLYALGAPPALGGPEESVGIHRAYVTVPNAASTFATSQWHNSGYEAARRSPPRRDFGDETMNLMQ | soluble
MDGEELREDLKEKGKTMDNDLKKSLKEAPSESYCYVLINPYVLDKDVREVDLATFLSSIFYVGKGKGERAMAYFKDACGNIQGSRKLTTIDQAWNKKGFVYKHIIWRPIIENLALAREAAMIFFFKNLAGKSNFTNKYNGSFKGESAFWSREEKCNYGVYLLETIHRSIQTNGCETVKKEDVAPRAAIQQSPRL | not soluble
MDGEKSGNRELYTKRVYEYDQVINQVLKHEENILSLIKKDTFGAAYKRLVLADEMIYLATLYLAKFRLSVALLGGKNENILNEARKTLYKPIIYLEEIVTDLIDAPFSEYEEGVDRISKITEKQRYYLIRKLGLVINLVIDAYGENTKWRWSFIDIEARFAVVAKNIMDLKEISQTGLNPHAEDYDTVIYHLRLVKKLFTKAADKYREKYEIVTNNISDFRTAILFLEGLRRVHMVLNEHREVEEIKRKIEIWKDKMEKDLKQKDKPKK | not soluble
MDGISLYDDCVMLAYNKEVRRNCLPFTCGENDLDDFFLNDADLYADELLGKTYCWVTTEIPHRIVALFTLSNDSIKTRLISPNDKNRLQRNIVNPKRGRSYPAVLIGRLGVNLEYQGTSSHVGRQLMAFIKDWFRHEDNKTGCRFIVVDAYNEEKILRYYERNGFVPLYKTDVIEKQYYDIPQDEPLKTRLLYFDLKKD | not soluble
MDGVVIKNTGSQYLVRCTDGTELYCMAKGNLRLKGIRSTNPVTVGDRVEIVPASQDGQPAYIKRIHPRRNYIIRRASNLSKESHILGANLDAAVLVCTINDPVTTTVFIDRFLATAEAYRVPVILVFNKIDCYTQEDRLQLDRLSAVYTAIGYPCCHVSAITGEGLPDLKSLLDGKLTLLAGHSGVGKSSLINALIPHADLRTGAISQAHHTGMHTTTFSQMIDFPDLSPGSALIDTPGIKGFGTLEMGEYEVSHYFPEIFAASKGCRFGNCTHTHEPGCAVLEALRRGEIAESRYISYLSILEDENAERYRPEY | not soluble
MDHPDPNKWADCVHCGMCLEACPTYELTGHEQQSPRGRVHLIKSVAEGKLEVNEAFADPVFTCLDCRACETACPADVEVGGLIEEARGQIRQALPLEHHHHHH | soluble
MDIFSGLFTQVNNNNEEDLRVELQNMKPGEGVIRAEVGPSGVATFKKYFLQDGKLQFEIVKHPI | not soluble
MDIGINSDPPPRDWQLEKVVELSRAGIRPPTAGNREAIEAATGRPWTEWTTHDGELTGHGYAAVVNKGREEGQHYRQLGLLQAGCPTAESIYVRASPLQRTRATAQALVDGAFPGCGVAIHYANGDADPLFQTDKFAATQTDPARQLAAVKEKAGDLAQRRQALAPTIQLLKQAVCQADKPCPIFDTPWRVEQSKSGKTTISGLSVMANMVETLRLGWSENLPLSQLAWGKIAQASQITALLPLLTENYDLSNDVLYTAQKRGSVLLNAMLDGVKPEASPNVRWLLLVAHDTNIAMVRTLMNFSWQLPGYSRGNIPPGSSLVLERWRDAKSGERYLRVYFQAQGLDDLRRLQTPDAQHPMLRQEWRQPGCRQTDVGTLCPFQAAITALGQRIDRPSAPAVAMVLPKLAAALEHHHHHH | soluble
MDIKVVKGSITEVDADVIVNPANSRGLMGGGVAVVIKRLGGEEIEREAVEKAPIPVGSAVLTTAGKLKFKGVIHAPTMEEPAMPSSEEKVRKATRAALELADKECFKIVAIPGMGTGVGGVPKEVAARAMVEEIRKFEPKCLEKVILVDIDEEMVEAWEKVLGLRLEHHHHHH | soluble
MDITLRTLTENDLPFVKDIYDYYTLHTTVVYFVHCASIDELKNYIPVGDPVYRSFIIETPEGAPCGFCYFARFKPREAFRISVELTLYLKPEFTGRGYGKQAILRLEEIIRQEGFSNIMALISGENEASIRLFEKCGFECCANIRQVAEKFGKKLDLRMYQKIISDNSHLTP | not soluble
MDIVSVALQRYSTKAFDPSKKLTAEEADKIKTLLQYSPSSTNSQPWHFIVASTEEGKARVAKSAAGNYTFNERKMLDASHVVVFCAKTAMDDAWLERVVDQEDADGRFATPEAKAANDKGRRFFADMHRVSLKDDHQWMAKQVYLNVGNFLLGVAAMGLDAVPIEGFDAEVLDAEFGLKEKGYTSLVVVPVGHHSVEDFNAGLPKSRLPLETTLTEV | not soluble
MDKDLQSIQEVRDLLAAASKAFEEYSQFSQSQIDEIVKEICEEAQKHEVELAKLANEETGFGRWEDKVLKNRLASVGVYETIKDLKTRGIINDDKEKRITEIGVPMGIIAALIPSTNPTSTTIYKIMISLKAGNAVIVSPHPNAKDSILKTAEYLIRAAERKGAPKGLIGVIKTPTLQATQELMKHKKTSLILATGGEAMVKAAYSSGTPAIGVGPGNGPSFIERSADIRKAVKRIIDSKTFDNGVICASEQSIVTEEVIKHQVADELKRQGAYFLNKDEREKVGKILMRANNTMNPKIVGKTALYVAAMAGITVPVTTKVLISEETEVSHFNPYSREKLCPVLGFYTEETWEKACEKCIEILQNEGIGHTMSMHTNNENIIREFSLKKPVSRLLVNTPAALGGVGATTNLIPAFTLGCGTVGGSATSDNIGPLNLINIRRVAYGTKELEELKNEGVCTCACELNTDTSNSKVSENDIESIIRQVLDGIYKK | not soluble
MDKFKGAVMVGALRLFALLPWRAVQWVGTAIGWLMWKLPNRSREVARINLSKCFPELSEPELEKLVGRSLMDIGKTLTESACAWIWPAQKSINLVREVEGLEVLKDALASGKGVVGITSHLGNWEVLNHFYCSQCKPIIFYRPPKLKAVDDLLRKQRVQLGNRVAASTKEGILSVIKEVRKGGSVGIPADPEPAESAGIFVPFCGTQALTSKFVPNMLAGGKAVGVFLHAMRLPDGSGYKVVLEAAPEAMYSTDTQTSAAAMSKVVEKYVRAYPSQYMWTMKRFKK | not soluble
MDKFKSMTELKELTKEGKDWEIECENRSSIVTILALHGGGIEPATTELAYTIAHCGDYNYFSFKGMRSKGNNELHVTSTHYDDQIALDLVRGSQRTVAIHGCEGNESVAYIGGSDDRLIELITESLEDIGISVREAPHHISGTQENNIVNMTQTQGGVQLELTAQLRKELFKNRKSSRKNRENKDNWDDLMYDFADAMKKAIERALEHHHHHH | soluble
MDKIKVGLQYWIPQHGLTRLVGKLASAKAGSLTTAVIRWFIKQYNVNMDEAKHSDPKHFKTFNEFFVRELKEGARPITEGDEIITHPADACVSQFGPIEDGQLIQAKGHNYSAQELLGGDEKLAEEFKDGSFATLYLSPRDYHRVHMPCDGTLRQMIYVPGDLFSVNPLTAENVPNLFARNERVVCIFDTEFGPMAQVLVGATIVGSIEQVWAGTITPPRGNTVYKWDYPAEGDKAVILKKGEEMGRFKLGSTVINLFAKDAIEFDVSMENGQPTVMGTPYALKKLEHHHHHH | soluble
MDKLIIGGIEIKNRLFVGSGKYPSNEIIKDVLEGSGSQVITLALRRVDLDNKEEDILQNIPKDVILLPNTSGATNAEEAIRIARIARAMGCGNWIKIEVISDSKYLLPDNEETIKATKVLADEGFIVLPYMCPDIYAGRRLIEAGAAAVMPLGAPIGSNRGLKTKELIQIMIDELDIPIIVDAGIGKPSQAMEAMEMGAAACLVNTAIASSEDPINMARAFKVAVEGGRLAYEAKMGRESKFGNASSPLTGFLDLEHHHHHH | not soluble
MDKPQEECGILGLWSEGPVDVAGLLHLGLLALQHRGQEAAGMAVTDGKAFLVEKDLGLVNQVFTEERLGKLRLPEARLGIAHTRYSTTGSNLRINAQPLTARTAHGVLAIAHNGNFTNAKLLRDRLLLEGATFQSTSDTEVMLLLLARMGHLPLPEAAAQAMRLLQGGYSILLMNRKTLLALRDPHGVRPLVLGKAPWGYAFASEPPALLLMGAEYVRDVRPGEVVWVEEGRLQSLQALPPEPAPCAFEWIYFARPDSVLDGTEAYEARVRMGMELFREAPAEADLVVPVPDSGIGAAVGYAKASGLPLEFGLYKNPYAGRTFIQPTQELRDLKTRLKLSPTGAVKGKRVVLVDDSIVRGTTSRRIVRMLKEAGALEVHFRVSSPPIRFPCYYGIDTAARKELIAAEKSVEEIQAYIGADSLAFLSEEGVKRAIGRPVCLACFNGRYPAGVPEEGEKLALELL | soluble
